What was measured:
Assay type in all cases: in vivo
[1] = test system: Arabidopsis thaliana T1 plants; test: Topramezone tolerance of transgenic Arabidopsis thaliana T1 plants (spray, bleached leaf area grade, damage score); conditions: Table 10; for Classification and statistics of the grade of pesticide damage Grade 0: number of plants at grade 0; for Classification and statistics of the grade of pesticide damage Grade 1: number of plants at grade 1; for Classification and statistics of the grade of pesticide damage Grade 2: number of plants at grade 2; for Classification and statistics of the grade of pesticide damage Grade 3: number of plants at grade 3; for Scores: pesticide damage score
Outline: (§1)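 Damage was assessed by bleaching grade (0 none; 1 <50%; 2 >50%; 3 100% of leaf area) one week after spraying. Sprays on 18-day-old T1 and wild-type plants used field-rate multiples: topramezone 25–200, isoxaflutole 35–280, mesotrione 52.5–420 g ai/ha.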

[2] = test system: Arabidopsis thaliana T1 plants; test: Isoxaflutole tolerance of transgenic Arabidopsis thaliana T1 plants (spray, bleached leaf area grade, damage score); conditions: Table 11; for Classification and statistics of the grade of pesticide damage Grade 0: number of plants at grade 0; for Classification and statistics of the grade of pesticide damage Grade 1: number of plants at grade 1; for Classification and statistics of the grade of pesticide damage Grade 2: number of plants at grade 2; for Classification and statistics of the grade of pesticide damage Grade 3: number of plants at grade 3; for Scores: pesticide damage score;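 on Scores: Weighted damage index from 0 to 100 where higher means more damage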
Outline: as §1

[3] = test system: Arabidopsis thaliana T1 plants; test: Mesotrione tolerance of transgenic Arabidopsis thaliana T1 plants (spray, bleached leaf area grade, damage score); set-up: Scores: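 damage score 0-100 computed as Σ(N×S)/(T×M)×100 over grades 0-3 with higher meaning more damage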; conditions: Table 12; for Classification and statistics of the grade of pesticide damage Grade 0: number of plants at grade 0; for Classification and statistics of the grade of pesticide damage Grade 1: number of plants at grade 1; for Classification and statistics of the grade of pesticide damage Grade 2: number of plants at grade 2; for Classification and statistics of the grade of pesticide damage Grade 3: number of plants at grade 3; for Scores: pesticide damage score
Outline: as §1

B1: HPPDm-3-02: nucleotide sequence encoding Avena sativa HPPD with A106G+F372A+F383W; vector DBN11784 (nucleic acid)
DNA: ATGCCACCTACTCCAGCTACAGCTACTGGTGCTGCTGCTGCTGCCGTTACTCCTGAGCACGCTGCCAGGTCATTCCCCAGGGTGGTTCGCGTGAACCCCAGATCTGATAGGTTCCCAGTTCTGAGCTTCCACCATGTTGAGCTGTGGTGCGCTGATGCTGCTTCTGCTGCTGGCAGGTTCTCTTTCGCTCTTGGTGCTCCACTCGCTGCTAGATCTGATCTGTCTACAGGAAATAGCGCTCATGCCTCACTCCTGCTTCGCTCAGGTGCTTTGGCCTTCCTCTTCACCGCTCCATATGCTCCCCCACCTCAGGAGGGTGCTACTGCTGCTGCTACAGCCTCCATTCCAAGCTTCTCAGCTGATGCCGCTAGAACCTTCGCTGCTGCTCATGGACTTGCCGTGAGGTCTGTTGGTGTTCGCGTGGCTGATGCTGCTGAGGCTTTCAGAGTTTCCGTTGCCGGCGGAGCTAGGCCAGCTTTCGCTCCTGCTGATTTGGGACATGGTTTCGGCCTGGCTGAGGTTGAGCTTTACGGTGACGTGGTTCTCCGCTTCGTGTCTTACCCAGATGAGACTGACCTGCCTTTCCTTCCCGGCTTCGAGAGAGTTTCCTCTCCTGGTGCCGTGGATTACGGCCTGACAAGGTTCGACCACGTGGTTGGAAACGTTCCCGAGATGGCTCCAGTGATCGATTACATGAAGGGCTTCCTTGGATTCCATGAGTTCGCCGAGTTCACTGCTGAGGACGTGGGAACCACTGAGTCCGGTTTGAACTCTGTGGTTCTCGCCAACAATTCTGAGGCTGTTTTGCTCCCTCTGAATGAGCCTGTGCATGGAACCAAGAGGAGAAGCCAGATTCAAACTTACCTGGAGTACCACGGTGGCCCTGGAGTTCAGCATATCGCCCTTGCTTCTAATGATGTGTTGCGCACACTCAGAGAGATGCGCGCCAGAACCCCCATGGGAGGTTTCGAGTTCATGGCCCCACCACAGGCTAAGTACTACGAGGGCGTTAGAAGGATTGCTGGAGACGTGTTGAGCGAGGAGCAGATCAAGGAGTGCCAAGAGCTGGGTGTTCTTGTGGATAGGGATGACCAGGGCGTTCTGCTTCAAATTGCCACTAAGCCAGTGGGCGACCGCCCTACATTCTGGCTTGAGATGATTCAAAGAATCGGCTGCATGGAGAAGGATGAGGTTGGACAGGAGTACCAAAAGGGCGGATGCGGTGGCTTCGGAAAGGGTAACTTCAGCGAGTTGTTCAAGTCAATCGAGGACTACGAGAAGAGCCTCGAGGTGAAGCAGTCAGTGGTTGCCCAAAAGTCCTGA
modifications: HPPDm-3-02 Nucleotide Sequence
notes: vector DBN11784
Resistance evaluation ([1]; topramezone 100 g ai/ha (4×)): Highly resistant
Classification and statistics of the grade of pesticide damage Grade 0 ([1]; topramezone 100 g ai/ha (4×)): 16
Classification and statistics of the grade of pesticide damage Grade 1 ([1]; topramezone 100 g ai/ha (4×)): 0
Classification and statistics of the grade of pesticide damage Grade 2 ([1]; topramezone 100 g ai/ha (4×)): 0
Classification and statistics of the grade of pesticide damage Grade 3 ([1]; topramezone 100 g ai/ha (4×)): 0
Scores ([1]; topramezone 100 g ai/ha (4×)): 0
Resistance evaluation ([1]; topramezone 200 g ai/ha (8×)): Highly resistant
Classification and statistics of the grade of pesticide damage Grade 0 ([1]; topramezone 200 g ai/ha (8×)): 16
Classification and statistics of the grade of pesticide damage Grade 1 ([1]; topramezone 200 g ai/ha (8×)): 0
Classification and statistics of the grade of pesticide damage Grade 2 ([1]; topramezone 200 g ai/ha (8×)): 0
Classification and statistics of the grade of pesticide damage Grade 3 ([1]; topramezone 200 g ai/ha (8×)): 0
Scores ([1]; topramezone 200 g ai/ha (8×)): 0
Resistance evaluation ([2]; isoxaflutole 140 g ai/ha (2×)): Highly resistant
Classification and statistics of the grade of pesticide damage Grade 0 ([2]; isoxaflutole 140 g ai/ha (2×)): 16
Classification and statistics of the grade of pesticide damage Grade 1 ([2]; isoxaflutole 140 g ai/ha (2×)): 0
Classification and statistics of the grade of pesticide damage Grade 2 ([2]; isoxaflutole 140 g ai/ha (2×)): 0
Classification and statistics of the grade of pesticide damage Grade 3 ([2]; isoxaflutole 140 g ai/ha (2×)): 0
Scores ([2]; isoxaflutole 140 g ai/ha (2×)): 0
Resistance evaluation ([2]; isoxaflutole 280 g ai/ha (4×)): Highly resistant
Classification and statistics of the grade of pesticide damage Grade 0 ([2]; isoxaflutole 280 g ai/ha (4×)): 12
Classification and statistics of the grade of pesticide damage Grade 1 ([2]; isoxaflutole 280 g ai/ha (4×)): 4
Classification and statistics of the grade of pesticide damage Grade 2 ([2]; isoxaflutole 280 g ai/ha (4×)): 0
Classification and statistics of the grade of pesticide damage Grade 3 ([2]; isoxaflutole 280 g ai/ha (4×)): 0
Scores ([2]; isoxaflutole 280 g ai/ha (4×)): 8
Resistance evaluation ([3]; mesotrione 210 g ai/ha (2×)): Highly resistant
Classification and statistics of the grade of pesticide damage Grade 0 ([3]; mesotrione 210 g ai/ha (2×)): 16
Classification and statistics of the grade of pesticide damage Grade 1 ([3]; mesotrione 210 g ai/ha (2×)): 0
Classification and statistics of the grade of pesticide damage Grade 2 ([3]; mesotrione 210 g ai/ha (2×)): 0
Classification and statistics of the grade of pesticide damage Grade 3 ([3]; mesotrione 210 g ai/ha (2×)): 0
Scores ([3]; mesotrione 210 g ai/ha (2×)): 0
Resistance evaluation ([3]; mesotrione 420 g ai/ha (4×)): Highly resistant
Classification and statistics of the grade of pesticide damage Grade 0 ([3]; mesotrione 420 g ai/ha (4×)): 14
Classification and statistics of the grade of pesticide damage Grade 1 ([3]; mesotrione 420 g ai/ha (4×)): 2
Classification and statistics of the grade of pesticide damage Grade 2 ([3]; mesotrione 420 g ai/ha (4×)): 0
Classification and statistics of the grade of pesticide damage Grade 3 ([3]; mesotrione 420 g ai/ha (4×)): 0
Scores ([3]; mesotrione 420 g ai/ha (4×)): 4

B2: HPPDm-4-02: nucleotide sequence encoding Avena sativa HPPD with A107 deletion+K351N+F372A+F383W; vector DBN11785 (nucleic acid)
DNA: ATGCCACCTACTCCAGCTACAGCTACTGGTGCTGCTGCTGCTGCCGTTACTCCTGAGCACGCTGCCAGGTCATTCCCCAGGGTGGTTCGCGTGAACCCCAGATCTGATAGGTTCCCAGTTCTGAGCTTCCACCATGTTGAGCTGTGGTGCGCTGATGCTGCTTCTGCTGCTGGCAGGTTCTCTTTCGCTCTTGGTGCTCCACTCGCTGCTAGATCTGATCTGTCTACAGGAAATAGCGCTCATGCCTCACTCCTGCTTCGCTCAGGTGCTTTGGCCTTCCTCTTCACCGCTCCATATGCTCCCCCACCTCAGGAGGCTACTGCTGCTGCTACAGCCTCCATTCCAAGCTTCTCAGCTGATGCCGCTAGAACCTTCGCTGCTGCTCATGGACTTGCCGTGAGGTCTGTTGGTGTTCGCGTGGCTGATGCTGCTGAGGCTTTCAGAGTTTCCGTTGCCGGCGGAGCTAGGCCAGCTTTCGCTCCTGCTGATTTGGGACATGGTTTCGGCCTGGCTGAGGTTGAGCTTTACGGTGACGTGGTTCTCCGCTTCGTGTCTTACCCAGATGAGACTGACCTGCCTTTCCTTCCCGGCTTCGAGAGAGTTTCCTCTCCTGGTGCCGTGGATTACGGCCTGACAAGGTTCGACCACGTGGTTGGAAACGTTCCCGAGATGGCTCCAGTGATCGATTACATGAAGGGCTTCCTTGGATTCCATGAGTTCGCCGAGTTCACTGCTGAGGACGTGGGAACCACTGAGTCCGGTTTGAACTCTGTGGTTCTCGCCAACAATTCTGAGGCTGTTTTGCTCCCTCTGAATGAGCCTGTGCATGGAACCAAGAGGAGAAGCCAGATTCAAACTTACCTGGAGTACCACGGTGGCCCTGGAGTTCAGCATATCGCCCTTGCTTCTAATGATGTGTTGCGCACACTCAGAGAGATGCGCGCCAGAACCCCCATGGGAGGTTTCGAGTTCATGGCCCCACCACAGGCTAAGTACTACGAGGGCGTTAGAAGGATTGCTGGAGACGTGTTGAGCGAGGAGCAGATCAATGAGTGCCAAGAGCTGGGTGTTCTTGTGGATAGGGATGACCAGGGCGTTCTGCTTCAAATTGCCACTAAGCCAGTGGGCGACCGCCCTACATTCTGGCTTGAGATGATTCAAAGAATCGGCTGCATGGAGAAGGATGAGGTTGGACAGGAGTACCAAAAGGGCGGATGCGGTGGCTTCGGAAAGGGTAACTTCAGCGAGTTGTTCAAGTCAATCGAGGACTACGAGAAGAGCCTCGAGGTGAAGCAGTCAGTGGTTGCCCAAAAGTCCTGA
modifications: HPPDm-4-02 Nucleotide Sequence
notes: vector DBN11785
Resistance evaluation ([1]; topramezone 100 g ai/ha (4×)): Highly resistant
Classification and statistics of the grade of pesticide damage Grade 0 ([1]; topramezone 100 g ai/ha (4×)): 16
Classification and statistics of the grade of pesticide damage Grade 1 ([1]; topramezone 100 g ai/ha (4×)): 0
Classification and statistics of the grade of pesticide damage Grade 2 ([1]; topramezone 100 g ai/ha (4×)): 0
Classification and statistics of the grade of pesticide damage Grade 3 ([1]; topramezone 100 g ai/ha (4×)): 0
Scores ([1]; topramezone 100 g ai/ha (4×)): 0
Resistance evaluation ([1]; topramezone 200 g ai/ha (8×)): Highly resistant
Classification and statistics of the grade of pesticide damage Grade 0 ([1]; topramezone 200 g ai/ha (8×)): 16
Classification and statistics of the grade of pesticide damage Grade 1 ([1]; topramezone 200 g ai/ha (8×)): 0
Classification and statistics of the grade of pesticide damage Grade 2 ([1]; topramezone 200 g ai/ha (8×)): 0
Classification and statistics of the grade of pesticide damage Grade 3 ([1]; topramezone 200 g ai/ha (8×)): 0
Scores ([1]; topramezone 200 g ai/ha (8×)): 0
Resistance evaluation ([2]; isoxaflutole 140 g ai/ha (2×)): Highly resistant
Classification and statistics of the grade of pesticide damage Grade 0 ([2]; isoxaflutole 140 g ai/ha (2×)): 16
Classification and statistics of the grade of pesticide damage Grade 1 ([2]; isoxaflutole 140 g ai/ha (2×)): 0
Classification and statistics of the grade of pesticide damage Grade 2 ([2]; isoxaflutole 140 g ai/ha (2×)): 0
Classification and statistics of the grade of pesticide damage Grade 3 ([2]; isoxaflutole 140 g ai/ha (2×)): 0
Scores ([2]; isoxaflutole 140 g ai/ha (2×)): 0
Resistance evaluation ([2]; isoxaflutole 280 g ai/ha (4×)): Highly resistant
Classification and statistics of the grade of pesticide damage Grade 0 ([2]; isoxaflutole 280 g ai/ha (4×)): 13
Classification and statistics of the grade of pesticide damage Grade 1 ([2]; isoxaflutole 280 g ai/ha (4×)): 3
Classification and statistics of the grade of pesticide damage Grade 2 ([2]; isoxaflutole 280 g ai/ha (4×)): 0
Classification and statistics of the grade of pesticide damage Grade 3 ([2]; isoxaflutole 280 g ai/ha (4×)): 0
Scores ([2]; isoxaflutole 280 g ai/ha (4×)): 6
Resistance evaluation ([3]; mesotrione 210 g ai/ha (2×)): Highly resistant
Classification and statistics of the grade of pesticide damage Grade 0 ([3]; mesotrione 210 g ai/ha (2×)): 16
Classification and statistics of the grade of pesticide damage Grade 1 ([3]; mesotrione 210 g ai/ha (2×)): 0
Classification and statistics of the grade of pesticide damage Grade 2 ([3]; mesotrione 210 g ai/ha (2×)): 0
Classification and statistics of the grade of pesticide damage Grade 3 ([3]; mesotrione 210 g ai/ha (2×)): 0
Scores ([3]; mesotrione 210 g ai/ha (2×)): 0
Resistance evaluation ([3]; mesotrione 420 g ai/ha (4×)): Highly resistant
Classification and statistics of the grade of pesticide damage Grade 0 ([3]; mesotrione 420 g ai/ha (4×)): 15
Classification and statistics of the grade of pesticide damage Grade 1 ([3]; mesotrione 420 g ai/ha (4×)): 1
Classification and statistics of the grade of pesticide damage Grade 2 ([3]; mesotrione 420 g ai/ha (4×)): 0
Classification and statistics of the grade of pesticide damage Grade 3 ([3]; mesotrione 420 g ai/ha (4×)): 0
Scores ([3]; mesotrione 420 g ai/ha (4×)): 2

— patent publication US20250043302A1, “MUTATED HYDROXYPHENYLPYRUVATE DIOXYGENASE POLYPEPTIDE, AND CODING GENE AND USE THEREOF” (BEIJING DABEINONG BIOTECHNOLOGY CO., LTD., priority 2021, published 2025)
